# Assays:
# [1] = target: the molecule itself; test: far-Western, overlay or dot blot; synthetic DPRs gently stirred in 1x PBS for 6 days, aliquots at days 1, 2, 4 and 6; 1 ul of 1 mg/ml dotted on nitrocellulose; oligomers read out with oligomer-specific antibody A11-19 (1:8000), fibrillar aggregates with OC (1:10,000)
# [2] = target: the molecule itself; test: far-Western, overlay or dot blot; monomeric 12-repeat DPRs seeded with brain-derived DPRs at 1:70 M ratio (seed to monomer), orbital shaker, 37 °C, 72 h; oligomerization confirmed by dot blot
protein,measurement,setting,value
"GRGRGRGRGRGR (source: synthetic peptide (Scenic Biotech)) [glycine–arginine dipeptide protein repeat, 6 repeats (GR6)]",binding result,[1],binds
"PRPRPRPRPRPRPRPRPRPRPRPR (source: synthetic peptide (Scenic Biotech)) [proline–arginine dipeptide protein repeat, 12 repeats (PR12)]",binding result,[2],binds
"GAGAGAGAGAGA (source: synthetic peptide (Scenic Biotech)) [glycine–alanine dipeptide protein repeat, 6 repeats (GA6)]",binding result,[1],binds
"GRGRGRGRGRGRGRGRGRGRGRGR (source: synthetic peptide (Scenic Biotech)) [glycine–arginine dipeptide protein repeat, 12 repeats (GR12)]",binding result,[2],binds
"GAGAGAGAGAGAGAGAGAGAGAGA (source: synthetic peptide (Scenic Biotech)) [glycine–alanine dipeptide protein repeat, 12 repeats (GA12)]",binding result,[2],binds
"PRPRPRPRPRPR (source: synthetic peptide (Scenic Biotech)) [proline–arginine dipeptide protein repeat, 6 repeats (PR6)]",binding result,[1],binds
"GAGAGA (source: synthetic peptide (Scenic Biotech)) [glycine–alanine dipeptide protein repeat, 3 repeats (GA3)]",binding result,[1],binds
"GRGRGR (source: synthetic peptide (Scenic Biotech)) [glycine–arginine dipeptide protein repeat, 3 repeats (GR3)]",binding result,[1],binds
"PRPRPR (source: synthetic peptide (Scenic Biotech)) [proline–arginine dipeptide protein repeat, 3 repeats (PR3)]",binding result,[1],binds
